For data set [1], the target named is T1, CD63 large extracellular domain, recombinant (Homo sapiens, UniProt P08962 103-203). In words: ELISA; 200 nM aptamer; PBS pH 7.4, 2.0 mM MgCl2, 0.02% Tween 20, 100 ug/mL salmon sperm DNA; ELISA 0.5 h; cells at RT 1 h (Methods) or 37 C 30 min (Results). The note with it: protein: commercial; tags: C-terminal His; label: biotin. For orientation: An ELISA detects its analyte on a solid surface through an enzyme-linked reagent.

Data set [2] has as its target T1, CD63 large extracellular domain, …. Nature of the data set: ELISA; PBS pH 7.4, 2.0 mM MgCl2, 0.02% Tween 20, 100 ug/mL salmon sperm DNA; ELISA 0.5 h; cells at RT 1 h (Methods) or 37 C 30 min (Results). The note with it: protein: commercial, tags: C-terminal His.
Data set [3] deals with HER2 (Homo sapiens (Human), UniProt P04626 23-652). The data set is described as above. Particulars: protein: commercial.

T1 sequence (P08962 103-203): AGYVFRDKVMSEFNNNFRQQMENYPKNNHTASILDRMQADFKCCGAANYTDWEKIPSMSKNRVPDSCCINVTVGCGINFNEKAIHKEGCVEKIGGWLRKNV

B1: CD63-6 (ssDNA)
DNA: TACCTACGACATGCCTGTGCTAGCCGAACCATGCTGAGGTCGT
As to B1, the binding result in data set [1] is given as “no binding”.

B2: CD63-1 (ssDNA)
DNA: TAACACGACAGACGTTCGGAGGTCGAACCCTGACAGCGTGGGC
On to B2, for which the Kd in data set [2] (label: 5' or 3' biotin (ELISA)) is 38.7 nM. For the same molecule, in data set [3] (label: 5' or 3' biotin (ELISA)), the binding result is on record as “no binding”.

B3: CD63-2 (ssDNA)
DNA: TAACCACCCCACCTCGCTCCCGTGACACTAATGCTAATTCCAA
For B3, the equilibrium dissociation constant (Kd) in data set [2] (label: biotin (ELISA)) was 78.4 nM. In addition, the binding result in data set [3] (label: biotin (ELISA)) is “no binding”.

By Kd is commonly meant the equilibrium constant for the complex coming apart.
